Paper PMC2954813, “Of Bits and Bugs — On the Use of Bioinformatics and a Bacterial Crystal Structure to Solve a Eukaryotic Repeat-Protein Structure” (PLoS ONE, 2010)

What was measured:
Pur-alpha 56-287 (C272S) [1] = biological target: T1, Pur-alpha 56-287 (C272S) (human, UniProt Q00577 56-287, C272S); assay: filter binding; replicates 491, 438, 306; 2.5 mM MgCl2; 100 mM NaCl, 10 mM HEPES pH 8.0, 2.5 mM MgCl2, 1 mM DTT; 0.5 nM labeled oligo, 0-10 uM protein, 20 min, room temperature; conditions: protein: recombinant; tags: GST removed by protease (tag cleaved); chain copies: 2; label: 5'-32P; single strand
T1 sequence: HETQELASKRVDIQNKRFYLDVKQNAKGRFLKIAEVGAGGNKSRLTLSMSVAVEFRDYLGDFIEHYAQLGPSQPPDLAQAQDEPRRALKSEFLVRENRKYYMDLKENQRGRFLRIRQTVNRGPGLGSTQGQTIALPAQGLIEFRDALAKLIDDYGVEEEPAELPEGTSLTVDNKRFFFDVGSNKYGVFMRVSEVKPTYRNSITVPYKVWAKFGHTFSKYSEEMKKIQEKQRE

Pur-alpha 56-287 (C272S) [2] = biological target: T1, Pur-alpha 56-287 (C272S); assay: filter binding; protein 0-10 uM; 2.5 mM MgCl2; 100 mM NaCl, 10 mM HEPES pH 8.0, 2.5 mM MgCl2, 1 mM DTT; 0.5 nM labeled oligo, 0-10 uM protein, 20 min, room temperature; conditions: protein: recombinant; tags: GST removed by protease (tag cleaved); chain copies: 2; label: 5'-32P; single strand
[3] = biological target: the molecule itself; assay: crystal structure; selenomethionine-substituted crystals grown at 4°C in 2.8 M sodium formate, protein 1.2 mg/mL, stoichiometric addition of the DNA oligomer hTel12 (not visible in the model); SAD, 1.9 Å
[4] = biological target: the molecule itself; assay: crystal structure; native crystals grown at 21°C, hanging drop, protein 2.2 mg/ml, 100 mM HEPES (pH 7.2), 20% PEG 3350; molecular replacement, 2.2 Å
Pur-alpha 56-287 (C272S) [5] = biological target: T1, Pur-alpha 56-287 (C272S); assay: filter binding; replicates 207, 258; 2.5 mM MgCl2; 100 mM NaCl, 10 mM HEPES pH 8.0, 2.5 mM MgCl2, 1 mM DTT; 0.5 nM labeled oligo, 0-10 uM protein, 20 min, room temperature; conditions: protein: recombinant; tags: GST removed by protease (tag cleaved); chain copies: 2; label: 5'-32P; single strand

B1: hTel12 (ssDNA)
DNA: AGGGTTAGGGTT
Kd (Pur-alpha 56-287 (C272S) [1]): 411 ± 95 nM

B2: Control (ssDNA)
DNA: CCTCCGCCTCCG
binding result (Pur-alpha 56-287 (C272S) [2]): no binding

B3: selenomethionine-substituted B. burgdorferi Pur-α 8–105 (L17M, F27M, I64M) (domain or fragment)
chain: ERGEVYSEKMFTESERTYFMNVKENRKGDYFLNIVESKRSPSGDFERHSIFVYEENMNEFESNLLKAIAVIKQKVSTGSVGSSARHNKGYGEYGERSK
modifications: selenomethionine-substituted (methionines introduced at positions 17, 27 and 64; no other methionines in this fragment)
notes: Expressed from the pGEX6p1 vector (BamHI/XhoI); Only amino acids 8 to 84 are visible in the electron density; also called SeMet; selenomethionine-derivatized protein; source: E. coli BL21, purified (glutathione column, protease cleavage, Q column, heparin column, size-exclusion chromatography)
stoichiometry N [3]: 2

B4: B. burgdorferi Pur-α 8–105 (domain or fragment, Borrelia burgdorferi B31, UniProt O51076-2 8-105, looked up)
chain: ERGEVYSEKLFTESERTYFFNVKENRKGDYFLNIVESKRSPSGDFERHSIFVYEENINEFESNLLKAIAVIKQKVSTGSVGSSARHNKGYGEYGERSK
notes: Pur-α (hypothetical protein BB0047) of Borrelia burgdorferi B31, 127-amino acid gene product, amino acids 8 to 105; Expressed from the pGEX6p1 vector (BamHI/XhoI); also called native protein; BB0047 fragment; source: E. coli BL21, purified (glutathione column, protease cleavage, Q column, heparin column, size-exclusion chromatography)
binding result [4]: binds

B5: JCVupTAR (ssDNA)
DNA: GGAGGGGGAGGC
Kd (Pur-alpha 56-287 (C272S) [5]): 233 ± 36 nM
